Data: patent publication US20100150860A1 (LUNAN PHARMACEUTICAL GROUP, published 2010)

B1: recombinant chimeric protein of neutrophil inhibitory factor and hirugen (TNHH), Met-NIF-GGGGG-FPRPGSGG-Hirugen (other)
chain: MNEHNLRCPQNGTEMPGFNDSIRLQFLAMHNGYRSKLALGHISITEESESDDDDDFGFLPDFAPRASKMRYLEYDCEAEKSAYMSARNCSDSSSPPEGYDENKYIFENSNNISEAALKAMISWAKEAFNLNKTKEGEGVLYRSNHDISNFANLAWDAREKFGCAVVNCPLGEIDDETNHDGETYATTIHVVCHYPKINKTEGQPIYKVGTPCDDCSEYTKKADNTTSADPVCIPDDGVCFIGSKADYDSKEFYRFRELGGGGGFPRPGSGGNGDFEEIPEEYL
B2: TNHH-G15/n3, NIF-(Gly)15-FPRP-(GSGG)3-hirugen (other)
chain: MNEHNLRCPQNGTEMPGFNDSIRLQFLAMHNGYRSKLALGHISITEESESDDDDDFGFLPDFAPRASKMRYLEYDCEAEKSAYMSARNCSDSSSPPEGYDENKYIFENSNNISEAALKAMISWAKEAFNLNKTKEGEGVLYRSNHDISNFANLAWDAREKFGCAVVNCPLGEIDDETNHDGETYATTIHVVCHYPKINKTEGQPIYKVGTPCDDCSEYTKKADNTTSADPVCIPDDGVCFIGSKADYDSKEFYRFRELGGGGGGGGGGGGGGGFPRPGSGGGSGGGSGGNGDFEEIPEEYL
B3: NIF-hirudin hybrid (NHH), NIF-(Gly)5-hirugen (other)
chain: NEHNLRCPQNGTEMPGFNDSIRLQFLAMHNGYRSKLALGHISITEESESDDDDDFGFLPDFAPRASKMRYLEYDCEAEKSAYMSARNCSDSSSPPEGYDENKYIFENSNNISEAALKAMISWAKEAFNLNKTKEGEGVLYRSNHDISNFANLAWDAREKFGCAVVNCPLGEIDDETNHDGETYATTIHVVCHYPKINKTEGQPIYKVGTPCDDCSEYTKKADNTTSADPVCIPDDGVCFIGSKADYDSKEFYRFRELGGGGGNGDFEEIPEEYL

Biological target: thrombin (of the antithrombin activity assay, species not stated)
Assay: cell-based or functional assay

| Binder | antithrombin activity (ATU/mg) |
| --- | --- |
| B1 | 1200 |
| B2 | 1200 |
| B3 | 800 |
| NGDFEEIPEEYL (not fully specified) [hirugen (printed 'Hirogen')] | 1000 |
